Data taken from the DeepSol protein solubility set.

Assay: soluble on expression in E. coli; label from the status in PepcDB or PDB records

## MHKVVIVGRPNVGKSSLFNRLLKKRSAVVADVPGVTRDLKEGVVETDRGRFLLVDTGGLWSGDKWEKKIQEKVDRALEDAEVVLFAVDGRAELTQADYEVAEYLRRKGKPVILVATKVDDPKHELYLGPLYGLGFGDPIPTSSEHARGLEELLEAIWERLPVRQIETEPEVAGIRLAIVGRPNAGKSSLLNAILGEERVIVSEEPGTTRDAIDVEFFFGGQRFVLVDTAGIRKRPENLVEELAIRRSLRAMDEADVVLLVVDPFQVGDRELKLANEALDRGKPVLLVITKWDLVDKEDAPKMRRLLREKLAHLDHLPRVFTSALTRQNLDRIFREAVRLHELNQTRVPTAELNRWVAVWTSRVQMPNFKGKPLKILYATQPEVAPPTFVFFVNHPEFVTRAFENYLKNRIGEDLGLREVPFRLVFRGRREE
  soluble on expression in E. coli: soluble

## MSYTAHEAQAALAPQFDAYSKAIEGSDWDTVATFYHPNGVIVQKGKEAFYGKDAIKAELLKFSEATGRSTSSFSNQKYEGAGDYLIITADFSSETEKAGTVKGKFVQIWKKEGDRHLIYHDEFEVNP
  soluble on expression in E. coli: not soluble

## MSAKAISEQTGKELLYKFICTTSAIQNRFKYARVTPDTDWARLLQDHPWLLSQNLVVKPDQLIKRRGKLGLVGVNLTLDGVKSWLKPRLGQEATVGKATGFLKNFLIEPFVPHSQAEEFYVCIYATREGDYVLFHHEGGVDVGDVDAKAQKLLVGVDEKLNPEDIKKHLLVHAPEDKKEILASFISGLFNFYEDLYFTYLEINPLVVTKDGVYVLDLAAKVDATADYICKVKWGDIEFPPPFGREAYPEEAYIADLDAKSGASLKLTLLNPKGRIWTMVAGGGASVVYSDTICDLGGVNELANYGEYSGAPSEQQTYDYAKTILSLMTREKHPDGKILIIGGSIANFTNVAATFKGIVRAIRDYQGPLKEHEVTIFVRRGGPNYQEGLRVMGEVGKTTGIPIHVFGTETHMTAIVGMALGHRPIP
  soluble on expression in E. coli: soluble

## ADLLSKFDPLIAEREALLATGVRDPYAIVMDKVLSPTEAMINGRKTILLGTYNYMGMTFDPDVIAAGKQALDEFGSGTTGSRVLNGTYQGHKACEDALKEFYGTEHAIVFSTGYQANLGMISTLAGKGDYIILDADSHASIYDGCWLGDAEIVRFRHNSVEDLDKRLGRLPAEAGKLVVLEGVYSMMGDIAPLQEMVAVSKKHGAMILVDEAHGMGFFGEHGRGVFEEAGVEADVDFVVGTFSKSVGTVGGFCVSNHPKFEVLRLVCRPYVFTASLPPSVVATAATSIRKLMHAGDKRAHLWKNSRRLHQGLRDMGYKLGTETAQSAIIAVILTDMAQAVALWQGLLEAGLYVNTARPPATPAGMFLLRCSLCAEHSDEQVEQILGMFESAGRATGVIPKLAAALEHHHHHH
  soluble on expression in E. coli: soluble

## VADRLIVKGAREHNLRSVDLDLPRDALIVFTGLSGSGKSSLAFDTIFAEGQRRYVESLSAYARQFLGQMDKPDVDFIEGLSPAVSIDQKSTNRNPRSTVGTITEVYDYLRLLYARAGTPHCPTCGERVARQTPQQIVDQVLAMPEGTRFLVLAPVVRTRKGEFADLFDKLNAQGYSRVRVDGVVHPLTDPPKLKKQEKHDIEVVVDRLTVKAAAKRRLTDSVETALNLADGIVVLEFVDHELGAPHREQRFSEKLACPNGHALAVDDLEPRSFSFNSPYGACPECSGLGIRKEVDPELVVPDPDRTLAQGAVAPWSNGHTAEYFTRMMAGLGEALGFDVDTPWRKLPAKARKAILEGADEQVHVRYRNRYGRTRSYYADFEGVLAFLQRKMSQTESEQMKERYEGFMRDVPCPVCAGTRLKPEILAVTLAGESKGEHGAKSIAEVCELSIADCADFLNALTLGPREQAIAGQVLKEIRSRLGFLLDVGLEYLSLSRAAATLSGGEAQRIRLATQIGSGLVGVLYVLDEPSIGLHQRDNRRLIETLTRLRDLGNTLIVVEHDEDTIEHADWIVDIGPGAGEHGGRIVHSGPYDELLRNKDSITGAYLSGRESIEIPAIRRSVDPRRQLTVVGAREHNLRGIDVSFPLGVLTSVTGVSGSGKSTLVNDILAAVLANRLNGARQVPGRHTRVTGLDYLDKLVRVDQSPIGRTPRSNPATYTGVFDKIRTLFAATTEAKVRGYQPGRFSFNVKGGRCEACTGDGTIKIEMNFLPDVYVPCEVCQGARYNRETLEVHYKGKTVSEVLDMSIEEAAEFFEPIAGVHRYLRTLVDVGLGYVRLGQPAPTLSGGEAQRVKLASELQKRSTGRTVYILDEPTTGLHFDDIRKLLNVINGLVDKGNTVIVIEHNLDVIKTSDWIIDLGPEGGAGGGTVVAQGTPEDVAAVPASYTGKFLAEVVGGGASAATSRSNRRRNVSA
  soluble on expression in E. coli: not soluble
